In patent US20250276077A1 (IMMUNOME, published 2025):
Changes are numbered by the printed parent chain.

B1: AB-010360 (antibody, mouse IgG2a, V domains shown)
VH: QVQLQQWGAGLLKPSETLSLTCAVYGGSFSGYYWSWIRQPPGKGLEWIGEINHRGSINYNNYNPSLKSRVTISVDTSKNQFSLKLSSVTAADTAVYYCAKPLRPHCTNGVCYSGDAFDIWGQGTMVTVAS
VL: SYVLTQPPSVSVAPGQTARITCGGNNIGSKNVHWYQQKPGQAPVLVVYDDSDRPSGIPEQFSGSNSGNTATLTISRVEAGDEADYYCQVWDSSSDHLVFGGGTKLTVL
B2: AB-010362 (antibody, mouse IgG2a, V domains shown)
VH: B1 VH
VL: B1 VL with Q60R
B3: AB-010365 (antibody, V domains shown)
VH: B1 VH with R54A
VL: B1 VL with Q60R, L97V
B4: AB-010367 (antibody, V domains shown)
VH: B1 VH with R54Q
VL: B1 VL with Q60R, L97V
B5: AB-010364 (antibody, mouse IgG2a, V domains shown)
VH: B1 VH with R54A
VL: B1 VL with L97V
B6: AB-010366 (antibody, mouse IgG2a, V domains shown)
VH: B1 VH with R54Q
VL: B1 VL with L97V
B7: AB-010359 (antibody, V domains shown)
VH: B1 VH with G31D
VL: B1 VL with Q60R, L97V
B8: AB-010358 (antibody, mouse IgG2a, V domains shown)
VH: B1 VH with G31D
VL: B1 VL with Q60R
B9: AB-009813 (antibody, mouse IgG2a, V domains shown)
VH: B1 VH with G31D, I51V, R54A, T76P, S86T
VL: B1 VL
B10: AB-009812 (antibody, mouse IgG2a, V domains shown)
VH: B1 VH with G31D, I51V, R54S, T76P, S86T
VL: B1 VL
B11: AB-009814 (antibody, mouse IgG2a, V domains shown)
VH: QVQLQQWGAGLLKPSETLSLTCAVYGGSFSDYYWSWIRQPPGKGLEWIGEVNHRGSINYNPSLKSRVTISVDPSKNQFSLKLTSVTAADTAVYYCAKPLRPHCTNGVCYSGDAFDIWGQGTMVTVAS
VL: B1 VL
B12: AB-009817 (antibody, mouse IgG2a, V domains shown)
VH: B1 VH with G31D, I51V, T76P, S86T, G109A
VL: B1 VL
B13: AB-009816 (antibody, mouse IgG2a, V domains shown)
VH: B1 VH with G31D, I51V, T76A, S86T
VL: B1 VL
B14: AB-010143 (antibody, mouse IgG2a, V domains shown)
VH: B1 VH with G31D, I51V, S86T
VL: B1 VL with L97V
B15: AB-010144 (antibody, mouse IgG2a, V domains shown)
VH: B1 VH with G31D, S86T
VL: B1 VL
B16: AB-010145 (antibody, mouse IgG2a, V domains shown)
VH: B1 VH with G31D, I51V
VL: B1 VL
B17: AB-010689 (antibody, V domains shown)
VH: B1 VH with T107I
VL: B1 VL with G23R, Q60R, L97V
B18: AB-010673 (antibody, V domains shown)
VH: B1 VH with G31D
VL: B1 VL with S93E, L97V
B19: AB-010688 (antibody, V domains shown)
VH: B1 VH
VL: B1 VL with S29Y, S93E, L97V
B20: AB-010683 (antibody, V domains shown)
VH: B1 VH
VL: B1 VL with K30M, S92H, L97V
B21: AB-010675 (antibody, V domains shown)
VH: B1 VH with T107I
VL: B1 VL with G23R, L97V
B22: AB-010677 (antibody, V domains shown)
VH: B1 VH
VL: B1 VL with G23R, K30M, L97V
B23: AB-010674 (antibody, V domains shown)
VH: B1 VH with G31D
VL: B1 VL with S29Y, S93E, L97V
B24: AB-010691 (antibody, V domains shown)
VH: B1 VH
VL: B1 VL with G23R, K30M, Q60R, L97V
B25: AB-010690 (antibody, V domains shown)
VH: B1 VH
VL: B1 VL with G23R, S29Y, Q60R, L97V
B26: AB-010687 (antibody, V domains shown)
VH: B1 VH
VL: B1 VL with S93E, L97V
B27: AB-010680 (antibody, V domains shown)
VH: B1 VH
VL: B1 VL with S29Y, K30M, L97V
B28: AB-010681 (antibody, V domains shown)
VH: B1 VH
VL: B1 VL with S29Y, S92H, L97V
B29: AB-010679 (antibody, V domains shown)
VH: B1 VH with T107I
VL: B1 VL with S29Y, L97V
B30: AB-010682 (antibody, V domains shown)
VH: B1 VH with T107I
VL: B1 VL with K30M, L97V
B31: AB-010685 (antibody, V domains shown)
VH: B1 VH with T107I
VL: B1 VL with S29Y, S92H, L97V
B32: AB-010672 (antibody, V domains shown)
VH: B1 VH with G31D
VL: B1 VL with S93R, L97V
B33: AB-010686 (antibody, V domains shown)
VH: B1 VH
VL: B1 VL with S93R, L97V
B34: AB-010692 (antibody, V domains shown)
VH: B1 VH
VL: B1 VL with G23R, Q60R, S92H, L97V
B35: AB-010684 (antibody, V domains shown)
VH: B1 VH with T107I
VL: B1 VL with S92H, L97V
B36: AB-010676 (antibody, V domains shown)
VH: B1 VH
VL: B1 VL with G23R, S29Y, L97V
B37: AB-010678 (antibody, V domains shown)
VH: B1 VH
VL: B1 VL with G23R, S92H, L97V

The binders below were run against T1, Human EphA2 (ephrin receptor A2) on cells (human, UniProt P29317 25-976) (assay: cell-based or functional assay).
T1 sequence (P29317 25-976): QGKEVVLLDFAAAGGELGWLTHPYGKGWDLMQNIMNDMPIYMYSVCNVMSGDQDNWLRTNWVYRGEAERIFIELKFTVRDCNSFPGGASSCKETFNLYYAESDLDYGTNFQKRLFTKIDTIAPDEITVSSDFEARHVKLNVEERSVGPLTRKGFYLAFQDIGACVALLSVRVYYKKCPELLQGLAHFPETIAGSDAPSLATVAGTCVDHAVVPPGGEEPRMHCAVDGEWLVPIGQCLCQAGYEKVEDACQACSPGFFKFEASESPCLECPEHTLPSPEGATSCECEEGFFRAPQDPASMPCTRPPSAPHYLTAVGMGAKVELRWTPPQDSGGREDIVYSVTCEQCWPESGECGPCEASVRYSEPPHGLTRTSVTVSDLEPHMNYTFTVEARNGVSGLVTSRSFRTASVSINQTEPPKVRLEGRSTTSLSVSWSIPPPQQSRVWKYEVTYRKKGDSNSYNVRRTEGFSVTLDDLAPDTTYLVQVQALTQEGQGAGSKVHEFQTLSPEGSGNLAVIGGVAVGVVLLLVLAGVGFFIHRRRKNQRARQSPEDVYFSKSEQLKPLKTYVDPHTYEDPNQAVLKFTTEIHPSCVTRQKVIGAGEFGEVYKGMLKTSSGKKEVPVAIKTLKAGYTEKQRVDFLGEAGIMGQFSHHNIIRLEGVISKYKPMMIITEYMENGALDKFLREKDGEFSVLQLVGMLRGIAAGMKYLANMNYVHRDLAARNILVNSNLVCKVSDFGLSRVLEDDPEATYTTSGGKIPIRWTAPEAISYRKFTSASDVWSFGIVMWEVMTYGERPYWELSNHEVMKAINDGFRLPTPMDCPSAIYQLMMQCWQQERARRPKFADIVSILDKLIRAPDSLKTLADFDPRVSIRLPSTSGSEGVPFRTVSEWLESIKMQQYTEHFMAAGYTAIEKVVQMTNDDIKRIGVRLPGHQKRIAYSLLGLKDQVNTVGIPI

ADCC EC50	ADCC Fold-improved (against AB-008873)	Binder
4.3 nM	8.09 fold	B1
12.8 nM	2.72 fold	B2
34.6 nM	1.01 fold	B3
42.7 nM	0.81 fold	B4
14.5 nM	2.4 fold	B5
28.9 nM	1.2 fold	B6
25.3 nM	1.38 fold	B7
73.3 nM	0.47 fold	B8

What follows are binders tested against T1, Human EphA2 (ephrin receptor A2) on … (assay: flow cytometry on A549 cells).
Protocol: Surface binding of the antibodies to in vitro grown cell lines was assessed by flow cytometry. Tumor cells were detached from their culture plate using Versene and counted. Cells were staining in BSA-containing buffer with primary antibody for 30 minutes at 4° C. with shaking. Following, cells were washed and stained with secondary PE-labeled antibody for 30 minutes at 4° C. with shaking. Before analysis on an Intellicyt iQue3 scanner, cells were counterstained with DAPI. MedFI values from live, single cells was expressed as fold over isotype control.

EC50	Flow Delta	binding result	Binder
6.8 nM	578000	–	B9
9.6 nM	568000	–	B10
11.5 nM	407000	–	B11
–	0	no binding (tested: tested up to 1 µM)	B12
5.5 nM	670000	–	B13

Target: T1, Human EphA2 (ephrin receptor A2) on …
Test: cell-based or functional assay
Remark: another data set of the same source

ADCC EC50	Binder
25.1 nM	B14
35.8 nM	B15
48.9 nM	B16

Target: T1, Human EphA2 (ephrin receptor A2) on …
Test: cell-based or functional assay
Remark: another data set of the same source

ADCC Delta, A549 cells	ADCC EC50 (nM), A549 cells	Binder
39.9	26 nM	B9
41.1	51 nM	B10
36	62.8 nM	B11
0	–	B12
58	12.5 nM	B13

Target: T1, Human EphA2 (ephrin receptor A2) on …
Test: cell-based or functional assay
Remark: another data set of the same source

ADCC - EC50 (nM), Trial 1, A549	ADCC - EC50 (nM), Trial 2, A549	Binder
2.5 nM	–	B17
3.9 nM	–	B18
~0.052 nM	0.032 nM	B19
~0.14 nM	0.046 nM	B20
1.5 nM	–	B21
1.6 nM	–	B22
~0.13 nM	0.1 nM	B23
2.2 nM	–	B24
0.19 nM	–	B25
2.8 nM	–	B26
~0.081 nM	0.031 nM	B27
< 0.03 nM	0.0079 nM	B28
~0.15 nM	0.04 nM	B29
3.2 nM	–	B30
< 0.03 nM	0.0057 nM	B31
12.4 nM	–	B32
6.4 nM	–	B33
0.21 nM	–	B34
~0.14 nM	0.048 nM	B35
~0.1 nM	0.039 nM	B36
~0.14 nM	0.047 nM	B37
